The values that follow come from patent US20240116985A1 (published 2024).

A word on the IC50: it is the point on the concentration scale where inhibition reaches its midpoint. Higher therefore signals weaker potency in that assay.

Starred links: 1 amine or outer side, 2 acyl side, 3 side chain; linkers in the order of their positions; H or OH if unused. Positions of bridges follow the written chain, without caps; N, C: chain ends. Non-standard residues stand in square brackets, D forms with d. Primed or numbered codes have the meaning given here. PyrS2″ = (S)-3-amino-1-((pent-4-en-1-yloxy)carbonyl)pyrrolidine-3-carboxylic acid (stapling residue), C=CCCCOC(=O)N1CC[C@@](N[*:1])(C(=O)[*:2])C1; B5(17) = 2,2-bis(4-pentenyl)glycine = 2-amino-2-(pent-4-en-1-yl)hept-6-enoic acid, stitching residue, C=CCCCC(CCCC=C)(N[*:1])C(=O)[*:2]; B5(4) = 2,2-bis(4-pentenyl)glycine = 2-amino-2-(pent-4-en-1-yl)hept-6-enoic acid (stitching residue), C=CCCCC(CCCC=C)(N[*:1])C(=O)[*:2]; (Me2NPrPip)GlnR″ = Glu side chain amide with 4-(3-(dimethylamino)propyl)piperazine, CN(C)CCCN1CCN(C(=O)CC[C@H](N[*:1])C(=O)[*:2])CC1; TfeGA = (S)-2-amino-3-((carboxymethyl)(2,2,2-trifluoroethyl)amino)propanoic acid, O=C([C@H](CN(CC(=O)[*:3])CC(F)(F)F)N[*:1])[*:2]; (2OxoPpz)GlnR = Glu side chain amide with 2-oxopiperazine (3-oxopiperazin-1-yl), O=C1CN(C(=O)CC[C@H](N[*:1])C(=O)[*:2])CCN1; B5(3) = 2,2-bis(4-pentenyl)glycine (stitching residue), C=CCCCC(CCCC=C)(N[*:1])C(=O)[*:2]; Phe(3-COOH) = N[C@@H](Cc1cccc(C(=O)O)c1)C(=O)O; 2F3MeF = Cc1cccc(C[C@H](N[*:1])C(=O)[*:2])c1F; Phe(2-CF3) = N[C@@H](Cc1ccccc1C(F)(F)F)C(=O)O; Phe(3,4-F2) = N[C@@H](Cc1ccc(F)c(F)c1)C(=O)O; Phe(4-F) = N[C@@H](Cc1ccc(F)cc1)C(=O)O; 1Nal = N[C@@H](Cc1cccc2ccccc12)C(=O)O; Bta = N[C@@H](Cc1csc2ccccc12)C(=O)O; αAllylPro = C=CC[C@@]1(C(=O)O)CCCN1; tBuAla = CC(C)(C)C[C@H](N)C(=O)O; 2Pal = N[C@@H](Cc1ccccn1)C(=O)O; 3Pal = N[C@@H](Cc1cccnc1)C(=O)O; 3Thi = N[C@@H](Cc1ccsc1)C(=O)O; S8 = C=CCCCCCC[C@](C)(N)C(=O)O; 2F3MeF(3) = Phe analogue; Aib = CC(C)(N)C(=O)O

The target in one experiment is T1, Bcat-Halo (UniProt P35222 1-781).
T1 sequence (looked up): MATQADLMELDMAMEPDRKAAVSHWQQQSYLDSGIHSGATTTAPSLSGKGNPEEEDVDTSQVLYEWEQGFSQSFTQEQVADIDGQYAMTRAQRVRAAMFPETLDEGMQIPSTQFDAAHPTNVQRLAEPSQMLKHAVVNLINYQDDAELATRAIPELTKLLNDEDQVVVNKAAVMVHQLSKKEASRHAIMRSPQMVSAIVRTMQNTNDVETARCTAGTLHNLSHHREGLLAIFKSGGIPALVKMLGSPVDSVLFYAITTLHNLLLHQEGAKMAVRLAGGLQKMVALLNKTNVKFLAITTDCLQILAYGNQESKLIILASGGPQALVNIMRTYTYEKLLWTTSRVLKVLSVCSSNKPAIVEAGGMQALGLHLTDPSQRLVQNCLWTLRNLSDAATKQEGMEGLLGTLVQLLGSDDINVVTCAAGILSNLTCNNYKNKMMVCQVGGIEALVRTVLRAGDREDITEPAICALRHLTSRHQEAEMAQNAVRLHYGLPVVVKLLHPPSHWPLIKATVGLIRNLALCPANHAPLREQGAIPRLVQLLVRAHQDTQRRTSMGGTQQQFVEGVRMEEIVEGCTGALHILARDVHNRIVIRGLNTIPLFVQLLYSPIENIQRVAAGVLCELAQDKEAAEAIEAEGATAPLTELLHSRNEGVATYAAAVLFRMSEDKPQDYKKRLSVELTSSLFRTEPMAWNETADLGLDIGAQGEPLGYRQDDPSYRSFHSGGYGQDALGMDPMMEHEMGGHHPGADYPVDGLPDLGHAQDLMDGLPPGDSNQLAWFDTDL
Briefly: cell-based or functional assay.

In experiment [1] the target is T2, beta-catenin, full-length (Uniprot ID P35222) (Homo sapiens (Human), UniProt P35222 2-781).
T2 construct: tags are not described; also called bCat; B-Catenin
T2 sequence: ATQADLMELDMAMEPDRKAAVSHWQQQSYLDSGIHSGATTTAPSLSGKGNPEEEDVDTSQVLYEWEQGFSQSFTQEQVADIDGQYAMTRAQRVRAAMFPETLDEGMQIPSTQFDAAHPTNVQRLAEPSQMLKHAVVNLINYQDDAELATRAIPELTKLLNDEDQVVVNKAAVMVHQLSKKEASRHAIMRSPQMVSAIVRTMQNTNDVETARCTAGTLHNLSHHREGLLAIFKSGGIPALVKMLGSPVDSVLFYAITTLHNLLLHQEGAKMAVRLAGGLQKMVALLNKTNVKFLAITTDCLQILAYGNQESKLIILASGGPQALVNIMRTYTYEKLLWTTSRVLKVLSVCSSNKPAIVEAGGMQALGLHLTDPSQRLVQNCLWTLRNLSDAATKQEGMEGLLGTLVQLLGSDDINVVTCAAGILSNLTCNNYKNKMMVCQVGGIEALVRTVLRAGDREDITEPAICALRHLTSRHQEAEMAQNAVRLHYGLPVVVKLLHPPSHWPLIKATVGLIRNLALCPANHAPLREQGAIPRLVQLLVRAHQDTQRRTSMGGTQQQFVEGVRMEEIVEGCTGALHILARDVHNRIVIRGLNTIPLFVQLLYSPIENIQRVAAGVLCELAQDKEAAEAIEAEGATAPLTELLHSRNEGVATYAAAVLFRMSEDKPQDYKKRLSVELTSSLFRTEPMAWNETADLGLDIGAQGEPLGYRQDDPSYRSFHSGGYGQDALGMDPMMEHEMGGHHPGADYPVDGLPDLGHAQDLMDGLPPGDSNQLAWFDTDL
As to the kind of experiment: fluorescence polarization competition, displacement of 5FAM-TCF4 10-53 from full-length beta-catenin. The method, then: The plate was incubated protected from light for 60 minutes at 20° C. prior to read. Reads were performed on a CLARIOstar plate reader (BMG Labtech) in duplicate, and data were fitted to a 1:1 binding model with hill slope using an in-house script. All provided concentrations are final concentrations.
Background: Fluorescence polarisation rises when a labelled molecule tumbles more slowly, as on binding a larger partner.

Experiment [2] has as its target T3, B-cat-Halo (beta-catenin HaloTag NanoBRET construct expressed in HEK293 cells) (UniProt P35222 1-781).
T3 sequence (looked up): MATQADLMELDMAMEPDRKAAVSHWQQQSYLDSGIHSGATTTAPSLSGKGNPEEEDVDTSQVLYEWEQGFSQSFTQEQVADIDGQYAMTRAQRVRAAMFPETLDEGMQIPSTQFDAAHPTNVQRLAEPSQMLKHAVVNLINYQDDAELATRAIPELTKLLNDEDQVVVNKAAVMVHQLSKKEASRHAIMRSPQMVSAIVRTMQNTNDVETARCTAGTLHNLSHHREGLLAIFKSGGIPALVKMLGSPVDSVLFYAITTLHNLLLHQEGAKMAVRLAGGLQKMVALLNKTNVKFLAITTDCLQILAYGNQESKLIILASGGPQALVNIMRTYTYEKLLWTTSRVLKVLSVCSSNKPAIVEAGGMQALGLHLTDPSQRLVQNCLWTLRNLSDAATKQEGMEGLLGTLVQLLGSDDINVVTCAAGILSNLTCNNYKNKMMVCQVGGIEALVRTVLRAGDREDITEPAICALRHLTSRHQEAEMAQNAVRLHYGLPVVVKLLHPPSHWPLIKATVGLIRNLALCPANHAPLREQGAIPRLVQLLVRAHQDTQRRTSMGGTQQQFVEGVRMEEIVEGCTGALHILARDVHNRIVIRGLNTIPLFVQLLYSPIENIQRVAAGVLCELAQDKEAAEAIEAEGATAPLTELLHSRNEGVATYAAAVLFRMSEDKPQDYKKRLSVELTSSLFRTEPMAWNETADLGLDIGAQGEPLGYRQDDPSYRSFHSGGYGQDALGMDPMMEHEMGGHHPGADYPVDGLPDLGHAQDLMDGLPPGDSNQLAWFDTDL
Briefly: cell-based or functional assay.

Ac-[αAllylPro]D[tBuAla][B5(4)]D[Phe(3-COOH)][(2OxoPpz)GlnR]AFL[PyrS2″][2F3MeF][Bta]A-NH2 (staple 1-4, 4-11) [I-2318]: the “NanoBRET Abs IC50” value in the experiment with Bcat-Halo worked out at 1.8 µM.
Regarding Ac-[αAllylPro]DA[B5(4)]DDAAFV[S8][1Nal]WQ-NH2 (staple 1-4, 4-11; also: earlier-eluting HPLC staple isomer, Stapled (stitched) peptide) [I-275: Ac-PL3-Asp-Ala-B5-Asp-Asp-Ala-Ala-Phe-Val-S8-1NapA-Trp-Gln-NH2], in experiment [1], the IC50 came to 5 µM.

B1: I-289: Ac-PL3-Asp-Ala-B5-Asp-Asp-Ala-Ala-Phe-Val-S8-Phe-Trp-NH2 (peptide)
peptide: XDAXDDAAFVXFW
modifications: not fully specified; N-terminal Ac; PL3 at 1, B5 at 4, S8 at 11 (olefin-metathesis staples 1-4 and 4-11); C-terminal amide
notes: Stapled (stitched) peptide
B1 displayed an IC50 in experiment [1] of 5 µM.
Consider Ac-[αAllylPro]D[tBuAla][B5(3)]D[Phe(3-COOH)]QAFL[PyrS2″][Phe(2-CF3)][RbMe2NapA]A-NH2 (staple 1-4, 4-11) [Ac-PL3-Asp-Npg-B5-Asp-3COOHF-Gln-Ala-Phe-Leu-PyrS2-2F3MeF-RbMe2NapA-Ala-NH2], for which, in experiment [2], the “NanoBRET Abs IC50” value worked out at 6.5 µM.
On to Ac-[αAllylPro]DA[B5(17)]D[3Pal]AAFV[S8]FWQ-NH2 (staple 1-4, 4-11, Stapled (stitched) peptide) [I-271: Ac-PL3-Asp-Ala-B5-Asp-3PyrA-Ala-Ala-Phe-Val-S8-Phe-Trp-Gln-NH2], for which the concentration for half-maximal inhibition (IC50) in experiment [1] was 5 µM.
As to Ac-[αAllylPro]D[tBuAla][B5(4)]D[Phe(3-COOH)][(Me2NPrPip)GlnR″]AFL[PyrS2″][2F3MeF][Bta]A-NH2 (staple 1-4, 4-11) [I-2323], in the experiment with Bcat-Halo, the “NanoBRET Abs IC50” value was 17.7 µM.
Turning to Ac-[αAllylPro]D[tBuAla][B5(3)]D[TfeGA]AAFL[PyrS2″][3Thi][Bta][(NHEt)GlnR]A-NH2 (staple 1-4, 4-11) [Ac-PL3-Asp-Npg-B5-Asp-TfeGA-Ala-Ala-Phe-Leu-PyrS2-3Thi-BztA-[NHEt]GlnR-Ala-NH2], the “NanoBRET Abs IC50” value in experiment [2] is 2.1 µM.
Still for that read-out and setting: for Ac-[αAllylPro]D[tBuAla][B5(3)]NT[Aib]AFN[PyrS2″][3Thi][Bta]K-NH2 (staple 1-4, 4-11) [Ac-PL3-Asp-Npg-B5-Asn-Thr-Aib-Ala-Phe-Asn-PyrS2-3Thi-BztA-Lys-NH2] the value was more than 20 µM.
Ac-[αAllylPro]DA[B5(17)]DDAA[Phe(3,4-F2)]V[S8]FWQ-NH2 (staple 1-4, 4-11, Stapled (stitched) peptide) [I-267: Ac-PL3-Asp-Ala-B5-Asp-Asp-Ala-Ala-34FF-Val-S8-Phe-Trp-Gln-NH2] came in with an IC50 in experiment [1] of 5 µM.
For the molecule Ac-[αAllylPro]DA[B5(17)]D[2Pal]AAFV[S8]FWQ-NH2 (staple 1-4, 4-11, Stapled (stitched) peptide) [I-270: Ac-PL3-Asp-Ala-B5-Asp-2PyrA-Ala-Ala-Phe-Val-S8-Phe-Trp-Gln-NH2], the IC50 in experiment [1] amounted to 5 µM.
On to Ac-[αAllylPro]D[tBuAla][B5(3)]N[Phe(3-COOH)]AAFN[PyrS2″][3Thi][Bta]Q-NH2 (staple 1-4, 4-11) [I-2335], for which the “NanoBRET Abs IC50” value in the experiment with Bcat-Halo amounted to 37 µM.
In experiment [1], Ac-[αAllylPro]DA[B5(4)]DDAAFV[S8][1Nal]WQ-NH2 (staple 1-4, 4-11; also: later-eluting HPLC staple isomer, Stapled (stitched) peptide) [I-276: Ac-PL3-Asp-Ala-B5-Asp-Asp-Ala-Ala-Phe-Val-S8-1NapA-Trp-Gln-NH2] had an IC50 of 3.43 µM.
On the same count and under the same terms, under Ac-[αAllylPro]DA[B5(17)]DDAA[Phe(4-F)]V[S8]FWQ-NH2 (staple 1-4, 4-11, Stapled (stitched) peptide) [I-266: Ac-PL3-Asp-Ala-B5-Asp-Asp-Ala-Ala-4FF-Val-S8-Phe-Trp-Gln-NH2] stands 5 µM.
On to Ac-[αAllylPro]D[tBuAla][B5(3)]D[Phe(3-COOH)]QAFL[PyrS2″][2F3MeF(3)][SbMe2NapA]A-NH2 (staple 1-4, 4-11) [Ac-PL3-Asp-Npg-B5-Asp-3COOHF-Gln-Ala-Phe-Leu-PyrS2-2F3MeF-SbMe2NapA-Ala-NH2], for which the “NanoBRET Abs IC50” value in experiment [2] is more than 20 µM.
